Reference: PMC8627827 (Biomacromolecules, 2021)

Assay: Subcutaneous pharmacokinetics in streptozotocin-induced diabetic rats
Design: species or system Male Sprague Dawley rats
Details: rat, in vivo, sc, 10 U/kg

Substance: insulin-PEG20k: insulin covalently modified with 20 kDa mPEG via insulin-BCN, long-acting control
- Time to peak (serum insulin): 7 ± 1 h
